Data set [1] deals with Isw1a complex (TAP-purified via Ioc3-TAP, strain YTT1168) (yeast, strain YTT1168). As to the kind of experiment: TEM. To be noted: no ATP, TEM/EMSA: 20 mM (Methods: 10 mM) Tris-HCl pH 8.0, 30 mM KCl, 17.5 mM NaCl, 1 mM Hepes pH 7.6, 0.75% glycerol, 20 min at 30 C, 750 nM DNA in bp, CHD1 tweezers: …. (In general: Mobility shift assays separate free from complexed probe on a gel.)

Data set [2] has the same test system. As to the kind of experiment: TEM, competition. To be noted: TEM/EMSA: 20 mM (Methods: 10 mM) Tris-HCl pH 8.0, 30 mM KCl, 17.5 mM NaCl, 1 mM Hepes pH 7.6, 0.75% glycerol, 20 min at 30 C, 750 nM DNA in bp, CHD1 tweezers: ….
Data set [3] has the same test system. The data set can be described thus: magnetic tweezers. To be noted: no ATP, end-tethered to glass and bead (1 um), TEM/EMSA: 20 mM (Methods: 10 mM) Tris-HCl pH 8.0, 30 mM KCl, 17.5 mM NaCl, 1 mM Hepes pH 7.6, 0.75% glycerol, 20 min at 30 C, 750 nM DNA in bp, CHD1 tweezers: ….

Broadly, the Kd is the concentration at which binding is half-saturated.

Turning to pBR322 negatively supercoiled plasmid, the binding signal (% unbound DNA) was found to be 57 in data set [1] (2 nM Isw1a); 37 in data set [1] (10 nM Isw1a); 10 in data set [1] (50 nM Isw1a); 59 in data set [2] (2 nM Isw1a, 1:1 mixture with linear DNA); 33 in data set [2] (10 nM Isw1a, 1:1 mixture with linear DNA); 6 in data set [2] (50 nM Isw1a, 1:1 mixture with linear DNA).

As to “linear pBR322 EcoRV-SspI fragment, 3983 bp”, the binding signal (% unbound DNA) in data set [1] (2 nM Isw1a) was found to be 82; in data set [1] (10 nM Isw1a), 53; in data set [1] (50 nM Isw1a) it was 20; in data set [2] (2 nM Isw1a, 1:1 mixture with scDNA), 90; in data set [2] (10 nM Isw1a, 1:1 mixture with scDNA), 73; in data set [2] (50 nM Isw1a, 1:1 mixture with scDNA), 25.

On to 3.6 kbp tethered DNA (magnetic trap), for which the Kd in data set [3] (F about 1 pN, tau_on 64 s, tau_off 69 s) was 1000 pM; in data set [3] (extrapolated to zero force, single nucleation complex) it was 1 pM.

These data come from PMC3281020.
